Publication PMC11161652, “ASXLs binding to the PHD2/3 fingers of MLL4 provides a mechanism for the recruitment of BAP1 to active enhancers” (Nature Communications, 2024)
Substitutions are numbered along the chain they refer to.

Experiments:
MLL4_(PHD2/3) E292K [1] = target: MLL4_(PHD2/3) E292K (human, UniProt O14686 227-324, E292K)
MLL3_(PHD2/3) D372N = target: T1, MLL3_(PHD2/3) D372N (human, UniProt Q8NEZ4 342-439, D372N)
T1 sequence: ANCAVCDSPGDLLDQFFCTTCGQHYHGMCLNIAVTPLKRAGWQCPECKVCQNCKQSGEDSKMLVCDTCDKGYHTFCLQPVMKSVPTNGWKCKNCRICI

MLL3_(PHD2/3) D372K = target: T2, MLL3_(PHD2/3) D372K (human, UniProt Q8NEZ4 342-439, D372K)
T2 sequence: T1 sequence with N31K

MLL3_(PHD2/3) E387Q = target: T3, MLL3_(PHD2/3) E387Q (human, UniProt Q8NEZ4 342-439, E387Q)
T3 sequence: T1 sequence with N31D, E46Q

MLL3_(PHD2/3) D400K = target: T4, MLL3_(PHD2/3) D400K (human, UniProt Q8NEZ4 342-439, D400K)
T4 sequence: T1 sequence with N31D, D59K

MLL4_(PHD2/3) D257K = target: T5, MLL4_(PHD2/3) D257K (human, UniProt O14686 227-324, D257K); assay: other fluorescence titration; tryptophan fluorescence, 25 °C; 1.0 µM MLL4 PHD2/3 or MLL3 PHD2/3 with increasing peptide; excitation 295 nm; 20 mM Tris pH 7.2, 150 mM NaCl, 1 mM TCEP, 0.02% Tween20; average of three measurements; conditions: both partners purified
T5 construct: human MLL4 (KMT2D), aa 227-324; source: E. coli BL21-CodonPlus, purified as WT
T5 sequence (looked up): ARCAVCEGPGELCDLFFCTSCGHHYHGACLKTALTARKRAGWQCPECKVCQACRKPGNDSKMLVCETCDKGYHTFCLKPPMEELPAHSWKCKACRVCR

MLL4_(PHD2/3) E272K = target: T6, MLL4_(PHD2/3) E272K (human, UniProt O14686 227-324, E272K); assay: as above; conditions: both partners purified
T6 construct: human MLL4 (KMT2D), aa 227-324; E272K is said to be found in cancers (Cosmic); source: E. coli BL21-CodonPlus, purified as WT
T6 sequence (looked up): T5 sequence (looked up) with K31D, E46K

MLL4_(PHD2/3) E292K [2] = target: T7, MLL4_(PHD2/3) E292K (human, UniProt O14686 227-324, E292K); assay: as above; conditions: both partners purified
T7 construct: human MLL4 (KMT2D), aa 227-324; E292K is said to be found in cancers (Cosmic); source: E. coli BL21-CodonPlus, purified as WT
T7 sequence (looked up): T5 sequence (looked up) with K31D, E66K

MLL4_(PHD2/3) S286A = target: T8, MLL4_(PHD2/3) S286A (human, UniProt O14686 227-324, S286A); assay: as above; conditions: both partners purified
T8 construct: human MLL4 (KMT2D), aa 227-324; source: E. coli BL21-CodonPlus, purified as WT
T8 sequence (looked up): T5 sequence (looked up) with K31D, S60A

MLL4_(PHD2/3) S314A = target: T9, MLL4_(PHD2/3) S314A (human, UniProt O14686 227-324, S314A); assay: as above; conditions: both partners purified
T9 construct: human MLL4 (KMT2D), aa 227-324; source: E. coli BL21-CodonPlus, purified as WT
T9 sequence (looked up): T5 sequence (looked up) with K31D, S88A

[3] = target: T10, PHD2 and PHD3 fingers of human MLL4 (aa 227-324) (human, UniProt O14686 227-324); assay: as above; conditions: both partners purified
T10 construct: PHD2 and PHD3 fingers of human MLL4 (KMT2D), aa 227-324; also called MLL4_(PHD2/3); MLL4 PHD2/3; source: E. coli BL21-CodonPlus, purified (glutathione agarose, PreScission cleavage; unlabeled proteins also SEC)
T10 sequence (looked up): T5 sequence (looked up) with K31D

B1: ASXL2 peptide (residues 650-670 of ASXL2) (peptide, UniProt Q76L83 650-670, looked up)
peptide: NRTGARTLADIKAKAQLVKAQ
notes: also called ASXL2 (aa 650-670); MBH of ASXL2; source: synthetic peptide (SynPeptide)
- Kd (MLL4_(PHD2/3) E292K [1]): 10 µM
- Kd (MLL3_(PHD2/3) D372N): 9 µM
- Kd (MLL3_(PHD2/3) D372K): 55 µM
- Kd (MLL3_(PHD2/3) E387Q): 6 µM
- Kd (MLL3_(PHD2/3) D400K): 540 µM
- Kd (MLL4_(PHD2/3) D257K): 27 µM
- Kd (MLL4_(PHD2/3) E272K): 28 µM
- fold reduction in binding against wild type MLL4_(PHD2/3) (MLL4_(PHD2/3) E292K [2]): ~14 fold
- Kd (MLL4_(PHD2/3) S286A): 0.8 µM
- Kd (MLL4_(PHD2/3) S314A): 0.8 µM
- Kd [3]: 0.7 µM
